Measurements published in patent publication US20150344570A1 (published 2015).

T1: FcγRIIa R (extracellular domain, His tag at the C terminus) (human, UniProt P12318 34-217)
T1 construct: extracellular domain; Soluble analyte in Biacore; also called FcgRIIa R type; 2aR
T1 sequence (looked up): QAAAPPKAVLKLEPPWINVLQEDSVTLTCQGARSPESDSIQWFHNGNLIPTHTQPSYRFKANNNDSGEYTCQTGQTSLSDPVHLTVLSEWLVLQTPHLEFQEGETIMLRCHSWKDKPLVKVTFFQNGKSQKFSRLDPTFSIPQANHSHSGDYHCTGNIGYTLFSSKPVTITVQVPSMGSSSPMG

B1: GpH7-B3 variant H268_13S/GpL16-k0 (antibody, human IgG1, kappa)
heavy: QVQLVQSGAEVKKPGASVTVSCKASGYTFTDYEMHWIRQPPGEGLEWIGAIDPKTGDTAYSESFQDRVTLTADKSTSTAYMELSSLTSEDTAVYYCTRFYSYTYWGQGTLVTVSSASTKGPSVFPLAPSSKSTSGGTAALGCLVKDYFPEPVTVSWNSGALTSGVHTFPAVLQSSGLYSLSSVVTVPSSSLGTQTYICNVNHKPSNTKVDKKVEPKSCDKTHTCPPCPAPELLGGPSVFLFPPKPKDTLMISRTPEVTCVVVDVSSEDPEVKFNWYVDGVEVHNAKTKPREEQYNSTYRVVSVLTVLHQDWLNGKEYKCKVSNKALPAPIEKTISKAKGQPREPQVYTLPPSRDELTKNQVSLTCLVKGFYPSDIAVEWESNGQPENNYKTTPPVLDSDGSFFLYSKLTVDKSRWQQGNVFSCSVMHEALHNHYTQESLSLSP
light: DIVMTQSPLSLPVTPGEPASISCQASESLVHSNRNTYLHWYLQKPGQSPQLLIYKVSNRFSGVPDRFSGSGSGTDFTLKISRVEAEDVGVYYCSQNTHVPPTFGQGTKVEIERTVAAPSVFIFPPSDEQLKSGTASVVCLLNNFYPREAKVQWKVDNALQSGNSQESVTEQDSKDSTYSLSSTLTLSKADYEKHKVYACEVTHQGLSSPVTKSFNRGEC
notes: homodimerized; also called Ho Ab
B2: GpH7-B3 variant S267_07I/GpL16-k0 (antibody, human IgG1, kappa)
heavy: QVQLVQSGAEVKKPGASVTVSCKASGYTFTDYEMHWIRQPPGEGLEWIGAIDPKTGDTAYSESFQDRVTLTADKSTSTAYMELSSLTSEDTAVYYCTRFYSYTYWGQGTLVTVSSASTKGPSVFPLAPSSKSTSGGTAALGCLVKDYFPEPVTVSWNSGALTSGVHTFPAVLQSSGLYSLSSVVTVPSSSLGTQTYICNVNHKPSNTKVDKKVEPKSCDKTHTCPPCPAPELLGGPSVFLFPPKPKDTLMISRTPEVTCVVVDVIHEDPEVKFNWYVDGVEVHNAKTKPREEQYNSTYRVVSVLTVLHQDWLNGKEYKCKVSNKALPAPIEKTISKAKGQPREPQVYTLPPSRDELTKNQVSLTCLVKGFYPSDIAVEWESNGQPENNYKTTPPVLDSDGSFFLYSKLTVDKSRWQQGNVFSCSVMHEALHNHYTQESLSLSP
light: B1 light
notes: as for B1
B3: GpH7-B3 variant T335_18N/GpL16-k0 (antibody, human IgG1, kappa)
heavy: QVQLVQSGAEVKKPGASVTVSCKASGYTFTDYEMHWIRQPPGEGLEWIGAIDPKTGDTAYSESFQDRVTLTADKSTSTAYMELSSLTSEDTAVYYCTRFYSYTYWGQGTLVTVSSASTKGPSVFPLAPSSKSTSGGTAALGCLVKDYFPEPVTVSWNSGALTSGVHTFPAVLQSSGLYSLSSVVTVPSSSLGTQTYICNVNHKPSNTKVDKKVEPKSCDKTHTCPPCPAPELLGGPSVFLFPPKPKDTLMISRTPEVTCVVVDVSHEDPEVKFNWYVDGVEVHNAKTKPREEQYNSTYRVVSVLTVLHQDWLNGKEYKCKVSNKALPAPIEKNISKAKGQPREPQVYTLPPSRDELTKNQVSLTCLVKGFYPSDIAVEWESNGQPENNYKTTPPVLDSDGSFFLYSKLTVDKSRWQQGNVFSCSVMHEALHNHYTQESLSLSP
light: B1 light
notes: as for B1
B4: GpH7-B3 variant P271_01G/GpL16-k0 (antibody, human IgG1, kappa)
heavy: not shown
light: B1 light
notes: as for B1
B5: GpH7-B3 variant I332_04F/GpL16-k0 (antibody, human IgG1, kappa)
heavy: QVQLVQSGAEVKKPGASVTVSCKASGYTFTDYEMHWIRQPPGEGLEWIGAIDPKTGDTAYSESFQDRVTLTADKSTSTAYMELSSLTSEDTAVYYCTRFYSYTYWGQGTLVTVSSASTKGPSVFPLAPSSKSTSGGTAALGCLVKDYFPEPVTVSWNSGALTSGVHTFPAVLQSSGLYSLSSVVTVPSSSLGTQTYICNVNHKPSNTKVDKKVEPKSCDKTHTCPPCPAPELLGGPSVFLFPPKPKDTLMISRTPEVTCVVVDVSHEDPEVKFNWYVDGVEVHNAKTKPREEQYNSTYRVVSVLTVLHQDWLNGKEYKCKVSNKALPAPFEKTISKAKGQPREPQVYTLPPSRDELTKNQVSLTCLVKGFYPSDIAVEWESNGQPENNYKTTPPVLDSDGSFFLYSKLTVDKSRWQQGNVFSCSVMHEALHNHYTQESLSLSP
light: B1 light
notes: as for B1
B6: GpH7-B3 variant K326_14T/GpL16-k0 (antibody, human IgG1, kappa)
heavy: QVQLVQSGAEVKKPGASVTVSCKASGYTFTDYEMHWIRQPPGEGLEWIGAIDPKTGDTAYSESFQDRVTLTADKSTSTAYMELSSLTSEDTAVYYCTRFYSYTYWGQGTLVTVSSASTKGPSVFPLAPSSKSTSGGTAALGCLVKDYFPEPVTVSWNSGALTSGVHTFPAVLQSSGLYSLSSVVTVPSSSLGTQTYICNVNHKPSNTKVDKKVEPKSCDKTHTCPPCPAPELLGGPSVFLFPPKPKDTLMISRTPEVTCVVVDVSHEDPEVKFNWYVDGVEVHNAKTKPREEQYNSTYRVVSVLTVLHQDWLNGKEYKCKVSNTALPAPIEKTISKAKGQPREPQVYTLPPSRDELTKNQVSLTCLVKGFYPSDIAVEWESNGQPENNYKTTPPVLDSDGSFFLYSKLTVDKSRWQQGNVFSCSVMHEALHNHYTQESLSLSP
light: B1 light
notes: as for B1
B7: GpH7-B3 variant L328_03V/GpL16-k0 (antibody, human IgG1, kappa)
heavy: not shown
light: B1 light
notes: as for B1
B8: GpH7-B3 variant T335_20W/GpL16-k0 (antibody, human IgG1, kappa)
heavy: not shown
light: B1 light
notes: as for B1
B9: GpH7-B3 variant H268_18N/GpL16-k0 (antibody, human IgG1, kappa)
heavy: not shown
light: B1 light
notes: as for B1
B10: GpH7-B3 variant Y300_04F/GpL16-k0 (antibody, human IgG1, kappa)
heavy: not shown
light: B1 light
notes: as for B1
B11: GpH7-B3 variant S337_14T/GpL16-k0 (antibody, human IgG1, kappa)
heavy: not shown
light: B1 light
notes: as for B1
B12: GpH7-B3 variant V266_06M/GpL16-k0 (antibody, human IgG1, kappa)
heavy: not shown
light: B1 light
notes: as for B1
B13: GpH7-B3 variant S239_09D/GpL16-k0 (antibody, human IgG1, kappa)
heavy: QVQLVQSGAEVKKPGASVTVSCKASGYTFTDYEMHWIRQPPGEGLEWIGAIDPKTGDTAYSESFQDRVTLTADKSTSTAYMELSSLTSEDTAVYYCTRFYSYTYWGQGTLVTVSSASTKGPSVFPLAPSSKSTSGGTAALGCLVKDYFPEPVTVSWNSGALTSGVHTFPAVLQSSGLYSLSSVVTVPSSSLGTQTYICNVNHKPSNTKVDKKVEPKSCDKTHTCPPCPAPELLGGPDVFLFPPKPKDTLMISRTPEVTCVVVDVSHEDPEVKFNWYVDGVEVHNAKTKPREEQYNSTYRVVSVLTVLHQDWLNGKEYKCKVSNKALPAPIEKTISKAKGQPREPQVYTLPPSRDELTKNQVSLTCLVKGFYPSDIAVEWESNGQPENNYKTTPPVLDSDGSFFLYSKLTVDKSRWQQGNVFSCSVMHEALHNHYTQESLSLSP
light: B1 light
notes: as for B1
B14: GpH7-B3 variant K334_15Y/GpL16-k0 (antibody, human IgG1, kappa)
heavy: not shown
light: B1 light
notes: as for B1
B15: GpH7-B3 variant P238_08L/GpL16-k0 (antibody, human IgG1, kappa)
heavy: not shown
light: B1 light
notes: as for B1
B16: GpH7-B3 variant K334_03V/GpL16-k0 (antibody, human IgG1, kappa)
heavy: not shown
light: B1 light
notes: as for B1
B17: GpH7-B3 variant K326_09D/GpL16-k0 (antibody, human IgG1, kappa)
heavy: not shown
light: B1 light
notes: as for B1
B18: GpH7-B3 variant K334_14T/GpL16-k0 (antibody, human IgG1, kappa)
heavy: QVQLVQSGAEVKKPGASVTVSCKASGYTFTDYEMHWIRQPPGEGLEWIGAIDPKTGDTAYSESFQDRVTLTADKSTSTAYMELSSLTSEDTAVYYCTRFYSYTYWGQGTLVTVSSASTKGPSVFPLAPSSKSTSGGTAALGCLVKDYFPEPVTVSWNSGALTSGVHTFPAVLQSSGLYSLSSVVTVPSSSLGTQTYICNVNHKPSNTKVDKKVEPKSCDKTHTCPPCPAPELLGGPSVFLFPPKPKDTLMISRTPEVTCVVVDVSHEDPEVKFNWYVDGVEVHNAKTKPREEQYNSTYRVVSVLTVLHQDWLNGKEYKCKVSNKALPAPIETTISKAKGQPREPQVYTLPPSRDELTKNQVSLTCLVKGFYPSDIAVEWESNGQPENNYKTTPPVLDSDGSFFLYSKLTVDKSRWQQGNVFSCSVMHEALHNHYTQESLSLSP
light: B1 light
notes: as for B1
B19: GpH7-B3 variant L328_15Y/GpL16-k0 (antibody, human IgG1, kappa)
heavy: not shown
light: B1 light
notes: as for B1
B20: GpH7-B3 variant K334_16H/GpL16-k0 (antibody, human IgG1, kappa)
heavy: not shown
light: B1 light
notes: as for B1
B21: GpH7-B3 variant K334_07I/GpL16-k0 (antibody, human IgG1, kappa)
heavy: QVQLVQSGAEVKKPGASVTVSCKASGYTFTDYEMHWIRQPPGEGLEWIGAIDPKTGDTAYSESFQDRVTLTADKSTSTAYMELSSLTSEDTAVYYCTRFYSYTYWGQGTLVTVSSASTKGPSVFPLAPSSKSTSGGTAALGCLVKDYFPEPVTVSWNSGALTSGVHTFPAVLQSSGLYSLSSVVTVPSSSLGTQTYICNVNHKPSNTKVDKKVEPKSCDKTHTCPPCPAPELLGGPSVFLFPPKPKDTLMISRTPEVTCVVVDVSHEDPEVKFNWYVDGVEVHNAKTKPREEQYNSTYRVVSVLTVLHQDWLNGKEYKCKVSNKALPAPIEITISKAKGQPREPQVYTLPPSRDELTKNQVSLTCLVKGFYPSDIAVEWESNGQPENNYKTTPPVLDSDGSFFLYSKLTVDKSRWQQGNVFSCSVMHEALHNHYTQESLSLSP
light: B1 light
notes: as for B1
B22: GpH7-B3 variant Y296_20W/GpL16-k0 (antibody, human IgG1, kappa)
heavy: not shown
light: B1 light
notes: as for B1
B23: GpH7-B3 variant I332_10E/GpL16-k0 (antibody, human IgG1, kappa)
heavy: not shown
light: B1 light
notes: as for B1
B24: GpH7-B3 variant L328_07I/GpL16-k0 (antibody, human IgG1, kappa)
heavy: not shown
light: B1 light
notes: as for B1
B25: GpH7-B3 variant K334_18N/GpL16-k0 (antibody, human IgG1, kappa)
heavy: not shown
light: B1 light
notes: as for B1
B26: GpH7-B3 variant K326_16H/GpL16-k0 (antibody, human IgG1, kappa)
heavy: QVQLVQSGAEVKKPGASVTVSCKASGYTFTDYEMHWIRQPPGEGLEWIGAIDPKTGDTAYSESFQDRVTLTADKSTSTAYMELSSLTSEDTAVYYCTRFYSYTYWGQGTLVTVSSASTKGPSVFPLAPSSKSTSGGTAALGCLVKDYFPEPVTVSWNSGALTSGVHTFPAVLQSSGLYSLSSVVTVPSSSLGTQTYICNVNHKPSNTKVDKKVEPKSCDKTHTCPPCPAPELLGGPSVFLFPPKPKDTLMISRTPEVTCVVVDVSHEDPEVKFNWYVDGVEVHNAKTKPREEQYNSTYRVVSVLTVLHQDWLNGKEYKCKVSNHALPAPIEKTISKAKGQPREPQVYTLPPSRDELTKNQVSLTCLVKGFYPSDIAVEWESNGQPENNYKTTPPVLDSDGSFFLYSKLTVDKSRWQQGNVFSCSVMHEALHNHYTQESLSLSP
light: B1 light
notes: as for B1
B27: GpH7-B3 variant T335_06M/GpL16-k0 (antibody, human IgG1, kappa)
heavy: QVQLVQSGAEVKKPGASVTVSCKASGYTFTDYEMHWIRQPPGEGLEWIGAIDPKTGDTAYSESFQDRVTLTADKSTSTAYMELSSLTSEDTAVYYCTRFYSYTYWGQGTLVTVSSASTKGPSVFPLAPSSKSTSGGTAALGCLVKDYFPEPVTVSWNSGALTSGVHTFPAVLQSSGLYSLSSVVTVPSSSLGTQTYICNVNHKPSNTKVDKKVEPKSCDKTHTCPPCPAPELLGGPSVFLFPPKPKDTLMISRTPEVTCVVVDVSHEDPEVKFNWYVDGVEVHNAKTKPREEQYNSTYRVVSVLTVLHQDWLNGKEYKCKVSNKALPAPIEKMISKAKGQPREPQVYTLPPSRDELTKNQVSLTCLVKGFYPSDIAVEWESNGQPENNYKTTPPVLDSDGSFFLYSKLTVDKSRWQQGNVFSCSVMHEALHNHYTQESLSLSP
light: B1 light
notes: as for B1
B28: GpH7-B3 variant L328_04F/GpL16-k0 (antibody, human IgG1, kappa)
heavy: not shown
light: B1 light
notes: as for B1
B29: GpH7-B3 variant T335_19Q/GpL16-k0 (antibody, human IgG1, kappa)
heavy: not shown
light: B1 light
notes: as for B1
B30: GpH7-B3 variant T335_16H/GpL16-k0 (antibody, human IgG1, kappa)
heavy: not shown
light: B1 light
notes: as for B1
B31: GpH7-B3 variant T335_09D/GpL16-k0 (antibody, human IgG1, kappa)
heavy: not shown
light: B1 light
notes: as for B1
B32: GpH7-B3 variant S239_01G/GpL16-k0 (antibody, human IgG1, kappa)
heavy: not shown
light: B1 light
notes: as for B1
B33: GpH7-B3 variant I332_09D/GpL16-k0 (antibody, human IgG1, kappa)
heavy: not shown
light: B1 light
notes: as for B1
B34: GpH7-B3 variant L328_06M/GpL16-k0 (antibody, human IgG1, kappa)
heavy: not shown
light: B1 light
notes: as for B1
B35: GpH7-B3 variant K326_10E/GpL16-k0 (antibody, human IgG1, kappa)
heavy: not shown
light: B1 light
notes: as for B1
B36: GpH7-B3 variant I332_15Y/GpL16-k0 (antibody, human IgG1, kappa)
heavy: not shown
light: B1 light
notes: as for B1
B37: GpH7-B3 variant T335_08L/GpL16-k0 (antibody, human IgG1, kappa)
heavy: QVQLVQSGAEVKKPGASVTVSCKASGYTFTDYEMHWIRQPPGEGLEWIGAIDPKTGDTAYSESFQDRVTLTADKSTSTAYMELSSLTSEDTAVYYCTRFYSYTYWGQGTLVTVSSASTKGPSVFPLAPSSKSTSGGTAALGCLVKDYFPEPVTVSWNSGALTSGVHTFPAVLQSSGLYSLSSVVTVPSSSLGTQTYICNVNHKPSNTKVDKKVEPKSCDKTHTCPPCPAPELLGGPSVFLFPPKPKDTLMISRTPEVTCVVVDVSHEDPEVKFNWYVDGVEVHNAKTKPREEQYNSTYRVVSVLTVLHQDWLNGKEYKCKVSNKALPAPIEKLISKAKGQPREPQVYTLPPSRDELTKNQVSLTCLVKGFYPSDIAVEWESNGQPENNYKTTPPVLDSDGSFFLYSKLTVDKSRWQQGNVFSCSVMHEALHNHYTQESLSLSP
light: B1 light
notes: as for B1
B38: GpH7-B3 variant T335_04F/GpL16-k0 (antibody, human IgG1, kappa)
heavy: not shown
light: B1 light
notes: as for B1
B39: GpH7-B3 variant S267_02A/GpL16-k0 (antibody, human IgG1, kappa)
heavy: not shown
light: B1 light
notes: as for B1
B40: GpH7-B3 variant K326_19Q/GpL16-k0 (antibody, human IgG1, kappa)
heavy: not shown
light: B1 light
notes: as for B1
B41: GpH7-B3 variant K326_06M/GpL16-k0 (antibody, human IgG1, kappa)
heavy: not shown
light: B1 light
notes: as for B1
B42: GpH7-B3 variant S267_01G/GpL16-k0 (antibody, human IgG1, kappa)
heavy: not shown
light: B1 light
notes: as for B1

target: T1, FcγRIIa R (extracellular domain, His …); assay: SPR (Biacore), relative binding, control GpH7-B3/GpL16-k0 = 100
Description: Analysis of interaction between objective antibody and the FcγR was carried out using Biacore T100 (GE Healthcare). HBS-EP+ (GE Healthcare) was used as the running buffer, and the measurement temperature was set to 25° C. Chips produced by immobilizing the antigen peptide by the amine coupling method to a Series S Sencor Chip CM5 (GE Healthcare), or alternatively, chips produced by allowing preliminarily biotinylated antigen peptides to interact with and immobilize onto a Series S Sensor Chip SA (certified) (GE Healthcare) were used. Antibodies of interest were captured onto an antigen peptide-immobilized chip, and allowed to interact to each FcγR diluted with running buffer. To regenerate and repeatedly use the chip, the antibodies captured on the chip were washed off by reacting 10 mM glycine-HCl, pH 1.5.

Ho/Con_2aR | Binder
135 % of control | B1
113 % of control | B2
100 % of control | B3
150 % of control | B4
109 % of control | B5
141 % of control | B6
116 % of control | B7
101 % of control | B8
134 % of control | B9
109 % of control | B10
110 % of control | B11
146 % of control | B12
142 % of control | B13
112 % of control | B14
148 % of control | B15
123 % of control | B16
158 % of control | B17
117 % of control | B18
157 % of control | B19
111 % of control | B20
121 % of control | B21

Ho/Con_2aR | Binder
107 % of control | B22
123 % of control | B23
140 % of control | B24
113 % of control | B25
123 % of control | B26
107 % of control | B27
145 % of control | B28
102 % of control | B29
102 % of control | B30
113 % of control | B31
132 % of control | B32
127 % of control | B33
124 % of control | B34
156 % of control | B35
111 % of control | B36
108 % of control | B37
108 % of control | B38
160 % of control | B39
137 % of control | B40
143 % of control | B41
116 % of control | B42
